# Numbering of substitutions follows the chain as printed.
# B1: Mus shNR2F6: short-hairpin RNA targeting mouse NR2F6, SEQ ID NO: 5, cloned into the pSiren vector (nucleic acid)
# DNA: GATCCGCATTACGGCGTGTTCACCTTCAAGAGAGGTGAACACGCCGTAATGCTTTTTTCTAGAG
# B2: Human shNR2F6: short-hairpin RNA targeting human NR2F6, SEQ ID NO: 6, cloned into the pSiren vector (nucleic acid)
# DNA: B1 DNA with C15T, G18C, C40G, G43A
# How the values were obtained:
# [1] = test system: 32Dcl3-NR2F6 cells; assay: G-CSF induced differentiation of NR2F6 over-expressing cells after HDAC inhibitor pretreatment (cell surface CD11b); type: cell-based, mouse; settings: pretreatment prior to G-CSF; non-treated 32Dcl3-NR2F6 cells failed to differentiate; FIG. 32
# Description: It has been reported that NR2F6 exerts its regulatory effects primarily as a transcriptional repressor (Liu, X., Huang, X., and Sigmund, C. D. (2003). Identification of a nuclear orphan receptor (Ear2) as a negative regulator of renin gene transcription. Circ Res 92, 1033-1040.). The repressor activity of nuclear receptors is mediated by recruitment of corepressors with histone deacetylase (HDAC) activity; we therefore evaluated the importance of this mechanism in the effects of NR2F6 on haematopoiesis and evaluated weather the activity of NR2F6 can be modulated with an HDAC inhibitor. 32Dcl3-NR2F6 cells were incubated with the non-specific histone deacetylase inhibitor sodium butyrate prior to treatment with G-CSF.
# [2] = test system: U937 GFP cells; assay: Cell cycle analysis by propidium iodide DNA content after atRA; type: cell-based, human; settings: control U937 GFP cells; FIG. 3B
# Protocol: Differentiation was induced in the U937 cell line by treatment with 10 nM TPA (Sigma), 1 uM ATRA (Sigma), or 1.25% v/v DMSO (Sigma) respectively. Immunostaining for the maturation marker CD11b (eBioscience) was performed for twenty minutes in the dark according to manufacturer's instructions and cells were analysed by flow cytometry. Nitroblue tetrazolium (NBT) reduction test (Sigma) was performed according to the manufacturer's instructions, with a minimum of 300 cells scored per slide in three different fields of view. Each experimental timepoint was conducted in triplicate.
# Overexpression of NR2F6 is able to override the growth arrest associated with differentiation and maturation, in particular maturation and differentiation induced by all-trans retinoic acid (FIG. 3). […] Growth of U937 cells expressing either GFP of NR2F6-IRES-GFP was monitored by counting using trypan blue following treatment of cells with atRA (FIG. 3A). U937 cells expressing either GFP of NR2F6-IRES-GFP were treated with atRA. DNA content was assessed using propidium iodide in order to determine which phase of the cell cycle the cells in each respective population resided in (FIG. 3B).
# [3] = test system: 32Dcl3 mouse hematopoietic cells; assay: shRNA knock down of NR2F6, differentiation by cytospins and flow cytometry; type: cell-based; settings: vs pSiren universal negative control, FIG. 26
# Protocol: Knock down of NR2F6 using short-hairpin RNAs induces differentiation and maturation of 32Dcl3 mouse hematopoietic cells (FIG. 26).
# (§1) Oligonucleotides targeting human or mouse EAR-2 were synthesized (Sigma), annealed and cloned into the pSiren vector (Clontech), after which sequence was verified (The Centre for Applied Genomics, Toronto). Virus was prepared by transient transfection of plasmid in the 293GPG cell line as described above. Knockdown was confirmed by western blot for these vectors in cell lines and by qPCR in bone marrow cells (data not shown and (17)).
# [4] = test system: bone marrow cells; assay: Methylcellulose colony formation and replating after silencing of EAR-2 (NR2F6); type: cell-based, mouse; settings: cytokines promoting multilineage or erythroid progenitor differentiation; FIG. 58
# Protocol: We assessed the effects of silencing of EAR-2 expression on colony formation in vitro. […] In replating experiments we observed a significant decrease in secondary colonies in cells in which EAR-2 expression was silenced FIG. 59.
# • The 293GPG retroviral packaging cell line (a gift of Richard Mulligan, Harvard University) was grown in DMEM medium supplemented with 10% FBS, tetracycline ([…]), G418 (0.3 mg/mL) and puromycin ([…]). Human EAR-2 cDNA (a kind gift from John Ladias, Harvard University) or Mus EAR-2 cDNA (a kind gift from, Curt D. Sigmund, University of Iowa) was subcloned into the pcDNA3.1V5/HIS vector (Invitrogen). […] Real time PCR was performed according to manufacturer's instructions using SYBR Green Master Mix (Applied Biosystems, Foster City, Calif.) and analyzed using the delta-delta CT method (16). Bone Marrow Transduction • Using the retroviral constructs described above, we forced expression of EAR-2 in primary murine BM cells and monitored the effects on differentiation using colony assays. […] Forty-eight hours after retroviral infection GFP-positive cells were collected by fluorescence activated cell sorting (FACS). […] GFP-positive cells were purified by fluorescence activated cell sorting (FACS) and cultured in methylcellulose medium containing hematopoietic growth factors that favored multilineage differentiation. […]
# [5] = test system: Murine bone marrow cells; assay: shRNA knock down of NR2F6 in ex vivo bone marrow suspension culture (flow cytometry, morphology); type: cell-based, mouse
# Protocol: Murine bone marrow cells were cultured in conditions that preserved stem cell maintenance (c-kit ligand; thrombopoietin; and Flt3 ligand in OP9 conditioned medium) and transduced with either an shRNA targeting NR2F6 or a scrambled control shRNA. Following seven days in culture cells were analysed by flow cytometry.
# [6] = test system: U937 human myelomonocytic leukemia cells; assay: shRNA knock down of NR2F6, differentiation by cytospins and flow cytometry; type: cell-based; settings: vs pSiren universal negative control, FIG. 27
# Protocol: Knock down of NR2F6 using short-hairpin RNAs induces terminal differentiation, blood cell maturation death of U937 human leukemia cells (FIG. 27).
# as §1
molecule,measurement,setting,value
CCCC(=O)[O-].[Na+] [sodium butyrate],G-CSF induced differentiation (cell surface CD11b expression),[1],showed recovery of G-CSF induced differentiation
"CC1=C(/C=C/C(C)=C/C=C/C(C)=C/C(=O)O)C(C)(C)CCC1 [atRA, all-trans retinoic acid]",number of cells in S/G2/M phases of the cell cycle,[2],drastic decrease in the number of cells in S/G2/M phases
B1,myeloid cell differentiation,[3],induces spontaneous myeloid cell differentiation
same,colony size in methylcellulose,[4],increase in the size of colonies
same,differentiation and maturation of bone marrow cells into neutrophils,[5]; flow cytometry (FIG. 30) and morphology (FIG. 31),promoted the differentiation and maturation of bone marrow cells into neutrophils
same,number of immature cells (devoid of markers of lineage commitment),"[5]; seven days in culture, vs scrambled shRNA control, flow cytometry, FIG. 28",dramatically reduced the number of immature cells
same,"number of stem cells (ckit+Sca-1+lineage-, KSL cells)","[5]; seven days in culture, vs scrambled shRNA control, flow cytometry, FIG. 29",dramatically reduced
B2,myeloid cell differentiation,[6],induces spontaneous myeloid cell differentiation

# From US9091696B2, “Modulation of NR2F6 and methods and uses thereof” (Regen Biopharma, Inc., priority 2008, dated 2015)
